# Where no end group is shown, it is not given here. TMR‑5‑maleimide = tetramethylrhodamine-5-maleimide
# B1: TMR-β-annulus-EE peptide (peptide)
# peptide: C(TMR‑5‑maleimide)INHVGGTGGAIMAPVAVTRQLVGSEE
# notes: Cys added at the N-terminus to carry the TMR dye; 24-residue β-annulus peptide involved in the formation of the dodecahedral internal skeleton of tomato bushy stunt virus (capsid protein); two anionic amino acids (Glu) added at the C-terminal side by design; also called Cys-β-annulus-EE peptide modified with TMR-maleimide; source: synthetic peptide (Fmoc solid-phase method; Michael addition of …)
# B2: β-annulus-EE peptide (peptide)
# peptide: INHVGGTGGAIMAPVAVTRQLVGSEE
# notes: 24-residue β-annulus peptide involved in the formation of the dodecahedral internal skeleton of tomato bushy stunt virus (capsid protein); two anionic amino acids (Glu) added at the C-terminal side by design; Self-assembles into the anionic artificial viral capsid; also called 26-residue β-annulus-EE peptide; source: synthetic peptide (Fmoc solid-phase method, purified by reverse-phase HPLC)
# Experiments:
# β-annulus-EE peptide = target: B2; assay: dynamic light scattering; 90 μM β-annulus-EE peptide and 10 μM TMR-β-annulus-EE peptide co-assembled (molar ratio 9:1) in 10 mM phosphate buffer (pH 7.0) containing 1% DMSO, 25 °C; details: both partners purified
# [1] = target: the molecule itself; assay: as above
Binder,binding result (β-annulus-EE peptide),binding result [1]
B1,binds,
B2,,binds

# Source: publication PMC10651892, “A supramolecular system mimicking the infection process of an enveloped virus through membrane fusion” (Scientific Reports, 2023)
